Measured values reported in patent publication US20180251562A1 (XOMA US, published 2018).

Experiments:
[1] = molecular target: T1, cynomolgus insulin receptor (INSR) on CHOK1 cells (cyno, UniProt A0A7N9D6H3 48-1390); test: binding to CHO cells expressing cyno INSR; 1st column headed CHO Cyno INSR; quantity and unit not printed [cont'd]
T1 construct: whole, on cells; CHOK1 cells over-expressing cyno INSR; also called cynomologous INSR ortholog; monkey INSR

[2] = molecular target: T2, human insulin receptor (INSR) on CHOK1 cells (human, UniProt P06213 28-1382); test: binding to CHO cells expressing human INSR; 1st column headed CHO Human INSR; quantity and unit not printed [cont'd]
T2 construct: whole, on cells; CHOK1 cells over-expressing human INSR; also called human INSR; hINSR

[3] = molecular target: T3, solubilized human INSR (B isoform) from CHO-hINSR-B cells, without insulin (human, UniProt P06213 28-1382); test: SPR (ProteOn XPR36), solubilized INSR-B captured by CT-3 mAb, Fab injected, -insulin
T3 construct: mature; Detergent-solubilized full-length receptor in cell lysate, captured on the SPR chip by its carboxy-terminal part; also called solubilized INSR

[4] = molecular target: T4, Recombinant human insulin receptor (B form) ECD (R&D Systems) (human, UniProt P06213 28-956, limits assumed); test: SPR (Biacore 2000), INSR-ECD immobilised, purified Fab injected, 1:1 fit
T4 construct: extracellular domain; also called INSR-ECD; h-INSR

[5] = molecular target: T2, human insulin receptor (INSR) on CHOK1 …; test: cell-based or functional assay
[6] = molecular target: T2, human insulin receptor (INSR) on CHOK1 …; test: cell-based or functional assay; remark: listed apart in the source
[7] = molecular target: T5, rat insulin receptor (INSR) on CHOK1 cells (rat, UniProt P15127 27-1383); test: binding to CHO cells expressing rat INSR; 2nd column headed CHO Rat INSR (the 1st column's numbers with more digits); quantity and unit not printed [cont'd]
T5 construct: whole, on cells; CHOK1 cells over-expressing rat INSR; also called rat INSR ortholog

[8] = molecular target: T5, rat insulin receptor (INSR) on CHOK1 …; test: binding to CHO cells expressing rat INSR; 1st column headed CHO Rat INSR; quantity and unit not printed [cont'd]
[9] = molecular target: T2, human insulin receptor (INSR) on CHOK1 …; test: flow cytometry on CHO cells expressing human INSR
[10] = molecular target: T1, cynomolgus insulin receptor (INSR) on …; test: binding to CHO cells expressing cyno INSR; 2nd column headed CHO Cyno INSR (same numbers as the 1st); quantity and unit not printed [cont'd]
[11] = molecular target: T2, human insulin receptor (INSR) on CHOK1 …; test: binding to CHO cells expressing human INSR; 2nd column headed CHO Human INSR; quantity and unit not printed [cont'd]
[12] = molecular target: T6, minipig insulin receptor (INSR) on CHOK1 cells (minipig, UniProt F1SCL0 28-758; F1SCL0 763-1382); test: flow cytometry on CHOK1 cells expressing the INSR ortholog; Fab, anti-human kappa FITC detection
T6 construct: Cells expressing minipig INSR; also called minipig INSR

[13] = molecular target: T1, cynomolgus insulin receptor (INSR) on …; test: as above
[14] = molecular target: T5, rat insulin receptor (INSR) on CHOK1 …; test: as above
[15] = molecular target: T2, human insulin receptor (INSR) on CHOK1 …; test: as above
[16] = molecular target: T6, minipig insulin receptor (INSR) on …; test: cell-based or functional assay
[17] = molecular target: T1, cynomolgus insulin receptor (INSR) on …; test: cell-based or functional assay
[18] = molecular target: T5, rat insulin receptor (INSR) on CHOK1 …; test: cell-based or functional assay
[19] = molecular target: T2, human insulin receptor (INSR) on CHOK1 …; test: cell-based or functional assay; remark: listed apart in the source

B1: XPA.15.247.2.018 Fab (Fab, V domains shown)
VH: EVQLVETGGGVVQPGRSLRLSCAASGFTFSSYAMHWVRQAPGKGLEWVAVISYSGSNKYYADSVKGRFTISRDNSKNTLYLQMNSLRAEDTAVYYCARHEWGFGFDYWGQGTTVTVSS
VL: DVVMTQSPLSLPVTLGQPASISCRSSQSLVYGDGNTYLNWFQQRPGQSPRRLIYKVSNRDSGVPDRFSGSGSGTEFTLKISRVEAEDVGVYFCMQGTYWPGTFGGGTKLEIKR
notes: Monomeric Fab; also called XPA.247.2.018
[1]
  CHO Cyno INSR: 2.62
[2]
  CHO Human INSR: 2.2
[3]
  Kd: 6.9 nM
[4]
  Kd: 9.7 nM
[5]
  Potency EC50 value [nM] [cont'd]: 1.31 nM
[6]
  EC50, pAKT assay at the EC80 concentration of insulin: 7.7 nM
[7]
  CHO Rat INSR: 1.28
[8]
  CHO Rat INSR: 1.28
[9]
  EC50 (read off the curve): ~0.2 µg/mL
[10]
  CHO Cyno INSR: 2.62
[11]
  CHO Human INSR: 1.63
[12]
  EC50: 2 nM
[13]
  EC50: 21.9 nM
[14]
  EC50: 1.9 nM
[15]
  EC50: 1.6 nM
[16]
  EC50 (nM), pAKT signaling assay: 2.5 nM
[17]
  EC50 (nM), pAKT signaling assay: 2.8 nM
[18]
  EC50 (nM), pAKT signaling assay: 4.2 nM
[19]
  EC50 (nM), pAKT signaling assay: 3.3 nM
